Key:
[1] = target: T1, wild-type human Fas receptor extracellular domain fused to human IgG1-Fc domain with a thrombin cleavage site … (human, UniProt P25445 26-173); experiment: co-IP; receptor-mediated ligand immunoprecipitation: purified hFasLECD sample with hFasRECD-T-Fc protein and Protein A-agarose beads (immunoprecipitation kit, Roche); precipitate analysed by SDS-PAGE; details: both partners purified
T1 construct: human Fas receptor, extracellular domain; A thrombin cleavage site lies between the receptor part and the Fc; also called wild-type hFasRECD-T-Fc; hFasRECD-T-Fc
T1 sequence (looked up): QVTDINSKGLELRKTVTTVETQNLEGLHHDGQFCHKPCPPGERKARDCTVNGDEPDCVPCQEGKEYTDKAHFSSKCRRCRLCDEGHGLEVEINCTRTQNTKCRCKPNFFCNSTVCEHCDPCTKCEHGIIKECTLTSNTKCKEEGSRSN

[2] = target: the molecule itself; experiment: SDS-PAGE with and without 2-mercaptoethanol; partially purified NFG1CG4-hFasLECD (main peak of the 1st cation-exchange chromatography, concentrated) in sample buffer with or without 2-mercaptoethanol; inter-subunit disulfide bond

Binder	binding result [1]	binding result [2]
tag-free human Fas ligand extracellular domain (139-281, N184Q, N250Q), N-glycan untrimmed (domain or fragment, UniProt P48023 139-281, looked up, remaining N-glycans, untrimmed, human Fas ligand (281 aa), extracellular domain with residues 103-138 deleted, i.e. residues 139-281, with N184Q and N250Q; Secreted with the S. cerevisiae alpha-factor prepro signal; also called tag-free hFasLECD; N-glycan untrimmed tag-free hFasLECD; source: Pichia pastoris GS115 (Mut+), secreted, purified (two rounds of cation-exchange chromatography)) EKKELRKVAHLTGKSNSRSMPLEWEDTYGIVLLSGVKYKKGGLVIQETGLYFVYSKVYFRGQSCNNLPLSHKVYMRNSKYPQDLVMMEGKMMSYCTTGQMWARSSYLGAVFQLTSADHLYVNVSELSLVNFEESQTFFGLYKL	binds	
N-Ethylmaleimide conjugated NFG1CG4-hFasLECD (domain or fragment, human, UniProt P48023 139-281, looked up, cysteine in the N-terminal tag conjugated with N-Ethylmaleimide, human Fas ligand (281 aa), residues 139-281 with N184Q and N250Q; also called N-Ethylmaleimide adduct of NFG1CG4-hFasLECD; not shown: FLAG-GlyCys(Gly)4, N-terminal, kept) EKKELRKVAHLTGKSNSRSMPLEWEDTYGIVLLSGVKYKKGGLVIQETGLYFVYSKVYFRGQSCNNLPLSHKVYMRNSKYPQDLVMMEGKMMSYCTTGQMWARSSYLGAVFQLTSADHLYVNVSELSLVNFEESQTFFGLYKL	binds	
NFG1CG4-hFasLECD cross-linked with SUNBRIGHT DE-100MA, peak III of the size-exclusion chromatography (domain or fragment, human, UniProt P48023 139-281, looked up, cysteine in the N-terminal tag conjugated with SUNBRIGHT DE-100MA (linear polyethylene glycol of about 10 kDa with a maleimide group at either end): two subunits cross-linked by one molecule, or one subunit conjugated with one molecule; unreacted cysteines capped with N-Ethylmaleimide, human Fas ligand (281 aa), residues 139-281 with N184Q and N250Q; not shown: FLAG-GlyCys(Gly)4, N-terminal, kept) EKKELRKVAHLTGKSNSRSMPLEWEDTYGIVLLSGVKYKKGGLVIQETGLYFVYSKVYFRGQSCNNLPLSHKVYMRNSKYPQDLVMMEGKMMSYCTTGQMWARSSYLGAVFQLTSADHLYVNVSELSLVNFEESQTFFGLYKL	binds	
NFG1CG4-tagged human Fas ligand extracellular domain (139-281, N184Q, N250Q), not conjugated (domain or fragment, UniProt P48023 139-281, looked up, cysteine in the N-terminal tag, partly in a possible inter-subunit disulfide bond, human Fas ligand (281 aa), residues 139-281 with N184Q and N250Q; Made from the NFG5-hFasLECD gene by an insertion mutation that adds a cysteine in the (Gly)5 region of the tag; also called NFG1CG4-hFasLECD; source: Pichia pastoris GS115 (Mut+), secreted; 40-fold concentrated culture supernatant; partially purified by cation-exchange chromatography; not shown: FLAG-GlyCys(Gly)4, N-terminal, kept) EKKELRKVAHLTGKSNSRSMPLEWEDTYGIVLLSGVKYKKGGLVIQETGLYFVYSKVYFRGQSCNNLPLSHKVYMRNSKYPQDLVMMEGKMMSYCTTGQMWARSSYLGAVFQLTSADHLYVNVSELSLVNFEESQTFFGLYKL		binds
N-terminal FLAG-(Gly)5 tagged human Fas ligand extracellular domain (aa 139-281, N184Q, N250Q) (domain or fragment, UniProt P48023 139-281, looked up, human Fas ligand (281 aa), residues 139-281 with N184Q and N250Q; Positive control of the co-immunoprecipitation; also called NFG5-hFasLECD; not shown: FLAG-(Gly)5, N-terminal, kept) EKKELRKVAHLTGKSNSRSMPLEWEDTYGIVLLSGVKYKKGGLVIQETGLYFVYSKVYFRGQSCNNLPLSHKVYMRNSKYPQDLVMMEGKMMSYCTTGQMWARSSYLGAVFQLTSADHLYVNVSELSLVNFEESQTFFGLYKL	binds	
N-glycan trimmed tag-free human Fas ligand extracellular domain (139-281, N184Q, N250Q) (domain or fragment, UniProt P48023 139-281, looked up, N-glycans trimmed with Endo Hf, human Fas ligand (281 aa), residues 139-281 with N184Q and N250Q; Same chain as m1 after Endo Hf digestion; also called N-glycan trimmed tag-free hFasLECD; source: Pichia pastoris GS115 (Mut+), secreted, purified; digested with Endo Hf, Con A-agarose flow-through, Mono S cation-exchange) EKKELRKVAHLTGKSNSRSMPLEWEDTYGIVLLSGVKYKKGGLVIQETGLYFVYSKVYFRGQSCNNLPLSHKVYMRNSKYPQDLVMMEGKMMSYCTTGQMWARSSYLGAVFQLTSADHLYVNVSELSLVNFEESQTFFGLYKL	binds	
SUNBRIGHT ME-050MA conjugated NFG1CG4-hFasLECD (domain or fragment, human, UniProt P48023 139-281, looked up, cysteine in the N-terminal tag conjugated with SUNBRIGHT ME-050MA (linear methoxy polyethylene glycol of about 5 kDa with one maleimide group); a small fraction of subunits not conjugated, human Fas ligand (281 aa), residues 139-281 with N184Q and N250Q; also called SUNBRIGHT ME-050MA adduct of NFG1CG4-hFasLECD; not shown: FLAG-GlyCys(Gly)4, N-terminal, kept) EKKELRKVAHLTGKSNSRSMPLEWEDTYGIVLLSGVKYKKGGLVIQETGLYFVYSKVYFRGQSCNNLPLSHKVYMRNSKYPQDLVMMEGKMMSYCTTGQMWARSSYLGAVFQLTSADHLYVNVSELSLVNFEESQTFFGLYKL	binds	
NFG1CG4-hFasLECD cross-linked with SUNBRIGHT DE-100MA, peak II of the size-exclusion chromatography (domain or fragment, human, UniProt P48023 139-281, looked up, cysteine in the N-terminal tag conjugated with SUNBRIGHT DE-100MA (linear polyethylene glycol of about 10 kDa with a maleimide group at either end): two subunits cross-linked by one molecule, or one subunit conjugated with one molecule; unreacted cysteines capped with N-Ethylmaleimide, human Fas ligand (281 aa), residues 139-281 with N184Q and N250Q; not shown: FLAG-GlyCys(Gly)4, N-terminal, kept) EKKELRKVAHLTGKSNSRSMPLEWEDTYGIVLLSGVKYKKGGLVIQETGLYFVYSKVYFRGQSCNNLPLSHKVYMRNSKYPQDLVMMEGKMMSYCTTGQMWARSSYLGAVFQLTSADHLYVNVSELSLVNFEESQTFFGLYKL	binds	
